Test results reported in PMC7033311, “The Eaf3 chromodomain acts as a pH sensor for gene expression by altering its binding affinity for histone methylated-lysine residues” (Bioscience Reports, 2020).
Changes are numbered by the printed parent chain. Read-outs that look alike come from different tables or passages of the source. Where no end group is shown, it is not given here. [ ]: non-standard residue; d: D form. me2 = dimethylated (di-methylated lysine); Lys(Me3) = C[N+](C)(C)CCCC[C@H](N)C(=O)O; pT = C[C@@H](OP(=O)(O)O)[C@H](N)C(=O)O; Lys(Me2) = CN(C)CCCC[C@H](N)C(=O)O

Assays:
Eaf3 CD Y23A = Eaf3 CD Y23A (Saccharomyces cerevisiae, UniProt Q12432, Y23A); type: binding; settings: pH 6.8
Eaf3 CD Y81A = Eaf3 CD Y81A (Saccharomyces cerevisiae, UniProt Q12432, Y81A); type: binding; settings: pH 6.8
Eaf3 CD W84A = Eaf3 CD W84A (Saccharomyces cerevisiae, UniProt Q12432, W84A); type: binding; settings: pH 6.8
Eaf3 CD W88A = Eaf3 CD W88A (Saccharomyces cerevisiae, UniProt Q12432, W88A); type: binding; settings: pH 6.8
Eaf3 CD (wild-type) = Eaf3 CD (wild-type) (Saccharomyces cerevisiae, UniProt Q12432); assay: biochemical; type: binding
[1] = biological target: Histone H3 peptide trimethylated at Lys36 (H3K36me3) none (post-translational modification: K36me3) (UniProt P61830); assay: NMR titration (1H,15N-HSQC chemical shift perturbation), Bruker AVANCE-600; settings: 25°C, 20 mM NaCl (given for pH 6.8 and in the pH 8.5 Tris buffer; the wording leaves open whether NaCl was also present at pH 5.2, 6.0 and 7.5), pH 5.2: 10 mM sodium acetate, pH 6.0 and 7.5: 10 mM potassium phosphate, pH 6.8: 10 mM potassium phosphate, pH 8.5: 10 m
[2] = biological target: Histone H3 peptide trimethylated at Lys36 (H3K36me3) none (post-translational modification: K36me3) (UniProt P61830); assay: NMR pH titration of the free protein (series of 1H,15N-HSQC spectra; His side-chain Hδ2, Hε1, Nδ1, Nε2 and main-chain N shifts); settings: pH 5.2-10.5; 25°C
[3] = biological target: T1, Eaf3 chromodomain (residues 1-120), wild type (Saccharomyces cerevisiae); assay: NMR titration; 0.1 mM 15N-labeled Eaf3 CD titrated with unlabeled histone H3 peptide; 1H,15N-HSQC; 10 mM potassium phosphate pH 6.8, 20 mM NaCl, 5 mM deuterated DTT, 25°C; Kd from the titration curves of Ala25; settings: both partners purified
T1 construct: Eaf3, Saccharomyces cerevisiae (budding yeast), chromodomain, residues 1-120; 15N-labelled for the NMR titrations; also called Eaf3 CD; WT; source: E. coli BL21(DE3)pLysS, purified (Ni-NTA, thrombin, Ni-NTA, Superdex75)
T1 chain: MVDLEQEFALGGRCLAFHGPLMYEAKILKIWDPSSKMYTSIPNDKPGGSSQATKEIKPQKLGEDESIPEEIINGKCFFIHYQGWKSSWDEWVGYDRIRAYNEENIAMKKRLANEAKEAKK

[4] = biological target: T2, Eaf3 chromodomain (Eaf3 CD, residues 1-120), wild type (S. cerevisiae, UniProt Q12432 1-120); assay: NMR titration; 0.1 mM 15N-labelled WT or mutant Eaf3 CD titrated with unlabelled histone H3 peptide up to 1:88; 10 mM potassium phosphate pH 6.8, 20 mM NaCl, 5 mM DTT, 25°C; Kd by nonlinear fit of chemical shift change; settings: both partners purified
T2 construct: Eaf3 chromodomain (CD), budding yeast (S. cerevisiae), residues 1-120; 15N-labelled for the NMR experiments; expressed from pET15b; also called WT Eaf3 CD; source: E. coli BL21(DE3)pLysS, purified (Ni-NTA, thrombin, Ni-NTA flow-through, Superdex75)
T2 sequence (looked up): T1 chain

[5] = biological target: His18 (UniProt position 18, …); assay: NMR; settings: 25 °C, free (no histone peptide), folded
[6] = biological target: the molecule itself; assay: SEC; size exclusion chromatograms of wild-type and mutant Eaf3 CD (Superdex75 in the purification); peaks marked D: dimer, M: monomer
[7] = NMR pH titration of histidine residues (pKa); type: physicochemical
Method: A series of ^1H,^15N-HSQC spectra for 0.1–1.1 mM ^15N-labeled Eaf3 CD were recorded at different pH ranging from 5.2 to 10.5 at 25°C on a Bruker AVANCE-600 spectrometer equipped with a cryogenic probe. The observed chemical shift (δobs) was plotted as a function of pH. pKa values were calculated by a nonlinear least-squares fit of the pH titration curves using the following equation, δobs=[δl+δh×10^(pH-pKa)]/[1+10^(pH-pKa)], where δl and δh represent the chemical shift values at extreme low and high pH, respectively.

Sequence of Eaf3 CD W88A (Q12432 1-120 W88A limits assumed): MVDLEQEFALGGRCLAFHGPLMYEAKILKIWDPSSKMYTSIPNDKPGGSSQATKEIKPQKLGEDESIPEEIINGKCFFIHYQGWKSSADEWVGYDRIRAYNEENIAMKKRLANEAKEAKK
Sequence of Eaf3 CD Y23A (Q12432 1-120 Y23A limits assumed): as the sequence (Q12432 1-120 W88A limits assumed) above, with Y23A, A88W counted along it
Sequence of Eaf3 CD W84A (Q12432 1-120 W84A limits assumed): as the sequence (Q12432 1-120 W88A limits assumed) above, with W84A, A88W counted along it
Sequence of Eaf3 CD Y81A (Q12432 1-120 Y81A limits assumed): as the sequence (Q12432 1-120 W88A limits assumed) above, with Y81A, A88W counted along it

## C[C@H](N)C(=O)N[C@@H](CCCNC(=N)N)C(=O)N[C@H](C(=O)N[C@@H](CCCC[N+](C)(C)C)C(=O)N[C@@H](CCC(N)=O)C(=O)N[C@H](C(=O)N[C@@H](C)C(=O)N[C@@H](CCCNC(=N)N)C(=O)N[C@@H](CCCCN)C(=O)N[C@@H](CO)C(=O)N[C@H](C(=O)NCC(=O)NCC(=O)N[C@@H](CCCCN)C(=O)N[C@@H](C)C(=O)N1CCC[C@H]1C(=O)N[C@@H](CCCNC(=N)N)C(=O)N[C@@H](Cc1ccc(O)cc1)C(=O)O)[C@@H](C)O)[C@@H](C)O)[C@@H](C)O [H3K4me3]
Eaf3 CD Y23A
  Dissociation constant (Kd): N.B.
Eaf3 CD Y81A
  Dissociation constant (Kd): N.B.
Eaf3 CD W84A
  Dissociation constant (Kd): N.B.
Eaf3 CD W88A
  Dissociation constant (Kd): N.B.

## C[C@H](N)C(=O)N[C@@H](CCCNC(=N)N(C)C)C(=O)N[C@H](C(=O)N[C@@H](CCCC[N+](C)(C)C)C(=O)N[C@@H](CCC(N)=O)C(=O)N[C@H](C(=O)N[C@@H](C)C(=O)N[C@@H](CCCNC(=N)N)C(=O)N[C@@H](CCCCN)C(=O)N[C@@H](CO)C(=O)N[C@H](C(=O)NCC(=O)NCC(=O)N[C@@H](CCCCN)C(=O)N[C@@H](C)C(=O)N1CCC[C@H]1C(=O)N[C@@H](CCCNC(=N)N)C(=O)N[C@@H](Cc1ccc(O)cc1)C(=O)O)[C@@H](C)O)[C@@H](C)O)[C@@H](C)O [H3R2ame2K4me3]
Eaf3 CD Y23A
  Dissociation constant (Kd): N.B.
Eaf3 CD Y81A
  Dissociation constant (Kd): N.B.
Eaf3 CD W84A
  Dissociation constant (Kd): N.B.
Eaf3 CD W88A
  Dissociation constant (Kd): N.B.

## C[N+](C)(C)CCCC[C@H](N)C(=O)O [Kme3, tri-methyl-lysine]
Eaf3 CD (wild-type)
  Kd: 4.44 ± 0.23 mM

## CN(C)C(N)=NCCC[C@H](N)C(=O)O [Rame2, asymmetrically di-methylated arginine]
Eaf3 CD (wild-type); pH 6.8, read-out: Dissociation constant (Kd)
  Kd: > 10 mM

## Eaf3 chromodomain (Eaf3 CD), wild type
[1]; pH 6.0-6.8
  fold change of binding (relative to pH 6.8): weakened 2.3-fold on going from pH 6.8 to 6.0
[1]; pH 6.8-7.5
  fold change of binding (relative to pH 6.8): enhanced 2.2-fold on going from pH 6.8 to 7.5
[1]; pH 8.5
  fold change of binding: enhanced a further 3.6-fold at pH 8.5
[2]
  pKa, His18 of Eaf3 CD: approximately 6.8

## Eaf3 chromodomain H18A H18A
[1]; pH 5.2
  fold change of binding (relative to pH 6.8): decreased by 1.9-fold at pH 5.2
[1]; pH 6.8
  fold change of binding (H18A relative to WT): 2.9-fold stronger binding than WT at pH 6.8
[1]; pH 8.5
  fold change of binding (relative to pH 6.8): slightly enhanced by a factor of 1.2-fold at pH 8.5

## Eaf3 chromodomain H18D H18D
[1]; pH 6.8
  fold change of binding (H18D relative to WT): 11.7-fold increase relative to WT at pH 6.8

B1: Histone H3 peptide dimethylated at Lys36 (H3K36me2), 18 residues (peptide)
peptide: SAPSTGGVK(me2)KPHRYKPGT
notes: histone H3; source: synthetic peptide (bought: Qiagen and SIGMA Genosys)
[3]
  Kd: 4.41 ± 0.908 mM

## ART[Lys(Me2)]QTARKSTGGKAPRY [histone H3 peptide H3K4me2, titration peptide]
[4]
  Kd: 4.04 ± 0.11 mM

B2: Histone H3 peptide trimethylated at Lys36 (H3K36me3) (peptide)
peptide: SAPSTGGVK(me3)KPHRYKPGT
notes: as for B1
[3]
  Kd: 1.94 ± 0.094 mM

B3: Eaf3 chromodomain (Eaf3 CD; essential Sas2-related acetyltransferase 1-associated factor 3) (Saccharomyces cerevisiae) (protein)
chain: T1 chain
[5]; not stated for the pH titration, the authors state that the pH changes did not disrupt the structure
  pKa: approximately 6.8

B4: Eaf3 chromodomain (Eaf3 CD; essential Sas2-related acetyltransferase1-associated factor 3) (Saccharomyces cerevisiae) (protein)
chain: T1 chain
[5]; the authors state that the pH changes caused no disruption of structure
  pKa: 6.47

B5: Eaf3 chromodomain (residues 1-120) Y23A (domain or fragment, Saccharomyces cerevisiae, UniProt Q12432 1-120, looked up)
chain: T1 chain with Y23A
notes: Eaf3, Saccharomyces cerevisiae, chromodomain, residues 1-120; source: E. coli BL21(DE3)pLysS, purified (Ni-NTA, thrombin, Ni-NTA, Superdex75)
[6]
  stoichiometry N: 2

B6: Eaf3 CD: chromodomain (residues 1−120) of budding yeast Eaf3 (protein)
chain: T1 chain
modifications: left off: His6, end not stated, cleaved
notes: chromodomain (residues 1−120) of budding yeast Eaf3
[7]; NMR pH titration, 25°C, overall
  observed pKa value of His18: approximately 6.8
[7]; at pH 5.2
  fraction of Eaf3 CD molecules with protonated His18: almost all
[7]; at physiological pH of 6.8
  fraction of Eaf3 CD molecules protonated at His18: almost half

B7: Eaf3 chromodomain (residues 1-120) G19A (domain or fragment, Saccharomyces cerevisiae, UniProt Q12432 1-120, looked up)
chain: T1 chain with G19A
notes: as for B5
[6]
  stoichiometry N: 2

## AR[pT][Lys(Me3)]QTARKSTGGKAPRY [histone H3 peptide H3T3phoK4me3, titration peptide (printed in Table 1 as H3T3phoK3me3)]
[4]
  Kd: 6.52 ± 0.48 mM
